In general, EC50 refers to the concentration giving half of the maximal effect. Higher therefore signals lower potency in that assay.

For one test, the target named is T1, BSA蛋白 (UniProt P02769 25-607).
T1 construct: Control protein in the ELISA; also called 对照蛋白
The test can be described thus: ELISA, BSA coated at 2 μg/mL, dilution series of B48, detected by anti-HA and HRP goat anti-mouse IgG. On the technique in general: In an ELISA, binding on a coated surface is turned into a signal by an enzyme label.

A further test deals with T2, BCMA蛋白 (human, UniProt Q02223 1-54).
T2 construct: extracellular domain; also called 抗原BCMA; B cell maturation antigen
T2 sequence (looked up): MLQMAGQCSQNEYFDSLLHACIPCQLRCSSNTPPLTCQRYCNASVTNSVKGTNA
The test can be described thus: ELISA, BCMA coated at 2 μg/mL, dilution series of B48, detected by anti-HA and HRP goat anti-mouse IgG.

T1 sequence (P02769 25-607 limits assumed): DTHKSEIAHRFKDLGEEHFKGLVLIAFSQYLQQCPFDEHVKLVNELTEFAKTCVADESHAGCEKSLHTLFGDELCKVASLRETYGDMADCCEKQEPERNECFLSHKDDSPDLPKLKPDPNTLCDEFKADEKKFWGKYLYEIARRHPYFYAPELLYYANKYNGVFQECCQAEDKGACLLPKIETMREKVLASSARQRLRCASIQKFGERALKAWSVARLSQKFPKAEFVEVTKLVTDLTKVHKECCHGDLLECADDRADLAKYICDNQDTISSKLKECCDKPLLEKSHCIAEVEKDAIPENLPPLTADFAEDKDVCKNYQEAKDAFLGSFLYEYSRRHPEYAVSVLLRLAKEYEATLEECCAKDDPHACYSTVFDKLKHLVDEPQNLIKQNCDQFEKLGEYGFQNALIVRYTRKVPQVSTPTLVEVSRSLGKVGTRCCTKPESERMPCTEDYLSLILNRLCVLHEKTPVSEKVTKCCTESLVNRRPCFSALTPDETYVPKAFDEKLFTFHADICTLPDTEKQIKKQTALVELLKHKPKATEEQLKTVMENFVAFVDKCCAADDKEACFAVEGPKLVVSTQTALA

B1: 抗BCMA单链抗体B48 (scFv)
scFv: QVQLVESGGDLVQPGGSLRLSCAASGFTFDDYAMHWVRQAPGKGLEWVSGISWNSGSIGYADSVKGRFTISRDNAKNSLYLQMNSLRAEDTALYYCAKIAGGAFDIWGQGTMVTVSSGGGGSGGGGSGGGGSDIRMTQSPSTLSASVGDRVTITCQASQNIGHFLAWYQHKPGKAPKLLIYAASTLQSGVPSRFSGSGSGTDFTLTISSLQPEDFGTYYCHHYVTVPLTFGQGTRVEIK
notes: Expressed in E. coli BL21 from pET-26b with an N-terminal pelB signal peptide (secreted to the periplasm); Purified protein carries C-terminal HA and 6xHis tags; also called B48单链抗体; not shown: C-terminal 6xHis tag from the vector pET-26b; vector residues between the insert
Turning to B1, in the test with BSA蛋白, the binding result is listed as “no binding”. The molecule further returned an EC50 in the test with BCMA蛋白 of 34 nM.

Values taken from CN112851814A (XIAN YUFAN BIOTECHNOLOGIES CO LTD, dated 2021).
